The target in assay [1] is Sgo1(51-96) peptide (human) (UniProt Q5FBB7). Description: crystal structure.
Assay [2] addresses AB’C PP2A holoenzyme with GST-tagged A subunit (GST-A, B’ and C subunits) (human) (UniProt P30153). The assay can be described thus: pull-down.

Chain of AB’C PP2A holoenzyme with GST-tagged A subunit (GST-A, B’ and C subunits) (human) (P30153 2-589, chain 1 of 3): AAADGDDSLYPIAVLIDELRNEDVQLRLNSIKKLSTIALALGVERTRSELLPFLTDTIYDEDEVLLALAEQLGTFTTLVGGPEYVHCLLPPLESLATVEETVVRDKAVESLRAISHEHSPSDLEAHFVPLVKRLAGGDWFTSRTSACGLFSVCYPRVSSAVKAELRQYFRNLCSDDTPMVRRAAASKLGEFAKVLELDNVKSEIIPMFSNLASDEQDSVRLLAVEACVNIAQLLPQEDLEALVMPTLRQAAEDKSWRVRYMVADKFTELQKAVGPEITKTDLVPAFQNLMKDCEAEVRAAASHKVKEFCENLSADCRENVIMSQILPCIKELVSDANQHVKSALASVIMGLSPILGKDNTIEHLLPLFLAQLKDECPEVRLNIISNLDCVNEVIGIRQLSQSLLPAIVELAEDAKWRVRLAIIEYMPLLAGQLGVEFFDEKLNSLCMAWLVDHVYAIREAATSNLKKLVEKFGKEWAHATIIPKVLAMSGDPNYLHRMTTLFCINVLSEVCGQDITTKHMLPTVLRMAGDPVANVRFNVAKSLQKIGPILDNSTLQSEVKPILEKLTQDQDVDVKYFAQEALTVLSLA
Chain of AB’C PP2A holoenzyme with GST-tagged A subunit (GST-A, B’ and C subunits) (human) (Q13362 whole entry, chain 2 of 3, further chain): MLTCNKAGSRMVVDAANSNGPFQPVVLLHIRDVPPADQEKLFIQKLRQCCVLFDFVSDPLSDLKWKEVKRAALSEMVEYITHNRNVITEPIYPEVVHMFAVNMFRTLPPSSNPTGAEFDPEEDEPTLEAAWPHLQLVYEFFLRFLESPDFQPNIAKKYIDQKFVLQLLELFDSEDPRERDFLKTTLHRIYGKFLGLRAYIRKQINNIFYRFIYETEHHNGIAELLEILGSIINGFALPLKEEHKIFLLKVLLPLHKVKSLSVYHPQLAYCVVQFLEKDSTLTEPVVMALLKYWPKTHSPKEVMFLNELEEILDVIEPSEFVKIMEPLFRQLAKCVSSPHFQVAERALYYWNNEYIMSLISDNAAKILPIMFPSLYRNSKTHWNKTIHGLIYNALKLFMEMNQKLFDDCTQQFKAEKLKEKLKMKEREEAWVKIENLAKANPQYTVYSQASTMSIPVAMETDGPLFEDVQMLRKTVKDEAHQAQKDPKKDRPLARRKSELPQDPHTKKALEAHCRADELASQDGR
Chain of AB’C PP2A holoenzyme with GST-tagged A subunit (GST-A, B’ and C subunits) (human) (P67775 whole entry, chain 3 of 3, further chain): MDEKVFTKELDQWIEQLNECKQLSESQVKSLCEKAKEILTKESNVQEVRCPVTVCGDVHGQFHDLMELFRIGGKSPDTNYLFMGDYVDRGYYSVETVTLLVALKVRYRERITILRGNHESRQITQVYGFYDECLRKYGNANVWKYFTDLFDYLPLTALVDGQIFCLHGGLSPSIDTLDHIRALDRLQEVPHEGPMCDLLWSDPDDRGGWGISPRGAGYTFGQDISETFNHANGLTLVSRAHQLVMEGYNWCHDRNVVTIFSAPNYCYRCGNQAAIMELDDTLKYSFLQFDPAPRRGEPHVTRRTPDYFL

With “Sgo1(51-96) peptide (from UniProt Q5FBB7 51-96)”, in assay [1], the stoichiometry N – broadly, a count of units in the complex or per binding partner – came out at 2.

Consider “MBP-Sgo2(45-117) (from UniProt Q7TSY8 45-117) (domain or fragment)”, for which, in assay [2], the stoichiometry N (Sgo2 per PP2A) came out at 2.
